T1: mouse TIGIT on primary murine Tregs (mouse, UniProt P86176 29-249)
T1 construct: whole, on cells; also called Mouse Tregs
T1 sequence (looked up): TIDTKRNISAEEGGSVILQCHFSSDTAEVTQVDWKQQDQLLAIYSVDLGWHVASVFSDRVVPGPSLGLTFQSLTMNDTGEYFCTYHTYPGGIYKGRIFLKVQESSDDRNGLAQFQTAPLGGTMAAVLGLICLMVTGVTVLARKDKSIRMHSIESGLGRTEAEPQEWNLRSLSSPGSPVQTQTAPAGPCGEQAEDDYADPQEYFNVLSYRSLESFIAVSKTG

T2: human TIGIT on the cell surface (human, UniProt Q495A1 22-244)
T2 construct: Expressed on engineered Jurkat cells or naturally on human primary CD8+ T cells (the cells are named under assay); also called Human TIGIT Jurkat; human TIGIT expressing Jurkat cells
T2 sequence: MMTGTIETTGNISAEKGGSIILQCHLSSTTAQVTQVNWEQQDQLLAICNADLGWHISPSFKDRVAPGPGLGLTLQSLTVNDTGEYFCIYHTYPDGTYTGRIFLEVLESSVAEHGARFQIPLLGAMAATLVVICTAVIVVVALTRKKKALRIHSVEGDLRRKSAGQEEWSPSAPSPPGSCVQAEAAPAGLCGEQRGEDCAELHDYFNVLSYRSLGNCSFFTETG

T3: recombinant monomeric mouse TIGIT-His (SEQ ID NO: 3) (mouse, UniProt P86176 29-148)
T3 construct: also called mTIGIT; not shown: His tag
T3 sequence: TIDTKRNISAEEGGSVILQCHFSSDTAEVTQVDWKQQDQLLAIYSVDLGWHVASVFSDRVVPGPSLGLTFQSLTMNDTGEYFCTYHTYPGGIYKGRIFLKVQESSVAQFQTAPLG

T4: recombinant monomeric human TIGIT-His (human, UniProt Q495A1 22-141)
T4 construct: also called hTIGIT; not shown: His tag
T4 sequence: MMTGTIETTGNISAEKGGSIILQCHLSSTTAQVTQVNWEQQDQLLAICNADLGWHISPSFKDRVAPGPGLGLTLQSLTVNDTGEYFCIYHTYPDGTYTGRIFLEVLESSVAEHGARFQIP

B1: SEC1 human IgG4 S228P (antibody)
heavy: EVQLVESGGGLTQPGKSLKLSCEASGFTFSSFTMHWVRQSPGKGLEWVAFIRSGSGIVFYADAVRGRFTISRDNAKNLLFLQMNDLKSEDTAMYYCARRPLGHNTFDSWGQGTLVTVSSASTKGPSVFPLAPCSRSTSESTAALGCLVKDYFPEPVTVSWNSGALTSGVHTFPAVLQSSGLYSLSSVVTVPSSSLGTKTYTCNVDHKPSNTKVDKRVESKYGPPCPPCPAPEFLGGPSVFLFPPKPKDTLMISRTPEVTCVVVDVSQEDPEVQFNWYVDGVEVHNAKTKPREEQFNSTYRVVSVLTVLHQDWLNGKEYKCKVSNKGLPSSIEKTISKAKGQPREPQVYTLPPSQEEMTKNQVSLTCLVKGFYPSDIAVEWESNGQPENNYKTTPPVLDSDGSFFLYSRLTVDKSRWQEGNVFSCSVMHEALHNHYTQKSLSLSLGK
light: DIVMTQSPSSLAVSPGEKVTMTCKSSQSLYYSGVKENLLAWYQQKPGQSPKLLIYYASIRFTGVPDRFTGSGSGTDYTLTITSVQAEDMGQYFCQQGINNPLTFGDGTKLEIKRTVAAPSVFIFPPSDEQLKSGTASVVCLLNNFYPREAKVQWKVDNALQSGNSQESVTEQDSKDSTYSLSSTLTLSKADYEKHKVYACEVTHQGLSSPVTKSFNRGEC
notes: Chimeric: hamster variable regions, human IgG4 S228P and human kappa constant regions; also called SEC1 (IgG4 S228P)
B2: SEC1 mouse IgG2a N297A (antibody)
heavy: EVQLVESGGGLTQPGKSLKLSCEASGFTFSSFTMHWVRQSPGKGLEWVAFIRSGSGIVFYADAVRGRFTISRDNAKNLLFLQMNDLKSEDTAMYYCARRPLGHNTFDSWGQGTLVTVSSAKTTAPSVYPLAPVCGDTTGSSVTLGCLVKGYFPEPVTLTWNSGSLSSGVHTFPAVLQSDLYTLSSSVTVTSSTWPSQSITCNVAHPASSTKVDKKIEPRGPTIKPCPPCKCPAPNLLGGPSVFIFPPKIKDVLMISLSPIVTCVVVDVSEDDPDVQISWFVNNVEVHTAQTQTHREDYASTLRVVSALPIQHQDWMSGKEFKCKVNNKDLPAPIERTISKPKGSVRAPQVYVLPPPEEEMTKKQVTLTCMVTDFMPEDIYVEWTNNGKTELNYKNTEPVLDSDGSYFMYSKLRVEKKNWVERNSYSCSVVHEGLHNHHTTKSFSRTPGK
light: DIVMTQSPSSLAVSPGEKVTMTCKSSQSLYYSGVKENLLAWYQQKPGQSPKLLIYYASIRFTGVPDRFTGSGSGTDYTLTITSVQAEDMGQYFCQQGINNPLTFGDGTKLEIKRADAAPTVSIFPPSSEQLTSGGASVVCFLNNFYPKDINVKWKIDGSERQNGVLNSWTDQDSKDSTYSMSSTLTLTKDEYERHNSYTCEATHKTSTSPIVKSFNRNEC
notes: also called SEC1 IgG2a N297A

Tests used:
[1] = biological target: T1, mouse TIGIT on primary murine Tregs; assay: flow cytometry on primary murine Tregs, average
[2] = biological target: T2, human TIGIT on the cell surface; assay: flow cytometry on human primary CD8+ T cells
[3] = biological target: T5, cynomolgus monkey TIGIT on the cell surface (cynomolgus monkey); assay: flow cytometry on cynomolgus monkey primary CD8+ T cells
T5 construct: Expressed on engineered Jurkat cells or naturally on cynomolgus monkey primary CD8+ T cells (the cells are named under assay); also called Cynomolgus Monkey TIGIT Jurkat; Cynomolgus Monkey CD8
T5 sequence (chain, as listed by the source limits assumed): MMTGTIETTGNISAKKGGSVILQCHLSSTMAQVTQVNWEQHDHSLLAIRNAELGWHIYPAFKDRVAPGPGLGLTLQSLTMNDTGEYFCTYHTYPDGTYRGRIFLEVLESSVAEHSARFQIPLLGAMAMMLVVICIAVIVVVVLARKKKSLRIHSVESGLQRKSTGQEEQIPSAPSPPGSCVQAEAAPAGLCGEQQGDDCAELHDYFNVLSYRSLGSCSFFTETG

[4] = biological target: T3, recombinant monomeric mouse TIGIT-His …; assay: BLI (Octet QKe), SEC1 on AMC sensor, mouse TIGIT-His 33 to 1.22 nM, 1:1 global fit
[5] = biological target: T4, recombinant monomeric human TIGIT-His; assay: BLI (Octet QKe), SEC1 on AMC sensor, human TIGIT-His 33.8 to 1.25 nM, 1:1 global fit
[6] = biological target: T6, recombinant monomeric cynomolgus monkey TIGIT-His (cynomolgus monkey); assay: BLI (Octet QKe), SEC1 on AMC sensor, cynomolgus monkey TIGIT-His in solution
T6 construct: also called Cyno TIGIT His; cTIGIT; not shown: His tag
T6 sequence (chain, as listed by the source limits assumed): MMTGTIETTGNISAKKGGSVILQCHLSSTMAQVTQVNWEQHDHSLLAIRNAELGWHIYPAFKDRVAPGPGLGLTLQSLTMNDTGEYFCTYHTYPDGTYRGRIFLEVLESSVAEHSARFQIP

Binder | Kd [1] [nM] | Kd [2] [nM] | binding result [3] | Kd [4] [nM] | koff [4] [s⁻¹] | kon [4] [M⁻¹ s⁻¹] | Kd [5] [nM] | koff [5] [s⁻¹] | kon [5] [M⁻¹ s⁻¹] | binding result [6]
B1 | 0.41 | 3.6 | no binding | – | – | – | – | – | – | –
B2 | – | – | – | 0.32 | 0.0006 | 1.9e+06 | 4.7 | 0.0079 | 1.7e+06 | no binding (tested: 302.8 to 0.42 nM)
